One substance from patent publication US20060241039A1 can be followed below.

For the assay, the target named is FVa light chain (FVaL) derived from ΔFV or its mutants by thrombin (human) (UniProt P12259). The experiment in a line: cell-based or functional assay.
Chain of UniProt P12259 (P12259 other isoform, or with tags, fused parts or gaps mutant limits assumed): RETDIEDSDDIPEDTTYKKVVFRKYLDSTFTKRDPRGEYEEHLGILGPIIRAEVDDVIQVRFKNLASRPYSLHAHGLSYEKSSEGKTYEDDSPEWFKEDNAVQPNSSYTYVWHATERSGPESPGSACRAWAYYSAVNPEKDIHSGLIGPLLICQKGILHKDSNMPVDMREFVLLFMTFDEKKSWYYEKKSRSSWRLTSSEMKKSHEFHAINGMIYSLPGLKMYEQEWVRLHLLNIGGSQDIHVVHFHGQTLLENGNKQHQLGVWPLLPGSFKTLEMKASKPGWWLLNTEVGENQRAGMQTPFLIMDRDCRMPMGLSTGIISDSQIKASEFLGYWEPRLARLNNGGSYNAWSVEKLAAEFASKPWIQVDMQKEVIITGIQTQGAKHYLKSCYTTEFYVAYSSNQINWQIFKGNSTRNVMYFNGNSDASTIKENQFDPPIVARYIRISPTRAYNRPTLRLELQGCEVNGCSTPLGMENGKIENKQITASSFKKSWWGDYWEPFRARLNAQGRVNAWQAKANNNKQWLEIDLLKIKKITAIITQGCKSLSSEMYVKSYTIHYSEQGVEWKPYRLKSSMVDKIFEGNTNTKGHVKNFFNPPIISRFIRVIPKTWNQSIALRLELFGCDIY

Substance “FVaH derived from ΔFV multipoint mutant ED/EDD (E96, D102, E108, D111 and D112 to Ala) (from UniProt P12259 29-737)” gave an inhibition of ΔFV activity (prothrombinase function, thrombin generation) of 98%.
